Measurements reported in patent US20020123042A1 (CHIRON, published 2002).

Biological target: T1, full-length HA-epitope tagged huBUB1 (plasmid p396-1) (human, UniProt O43683 1-1085)
T1 construct: In vitro translated; precipitated with anti-HA monoclonal antibody and Protein G beads; also called HA-huBUB1; HA-BUB1; not shown: triple HA tag
Test: anti-HA co-immunoprecipitation of in vitro translated proteins, BUB3 present
Description: ³⁵S-methionine-labeled proteins and polypeptides were then produced from these plasmids by coupled in vitro transcription/translation reactions (IVT), as described above. IVT reactions were immunoprecipitated (IP), using either anti-FLAG agarose beads (Kodak IBI) or anti-HA monoclonal antibody combined with Protein G beads (BMB). Beads were extensively washed as previously described to ensure the removal of non-specifically-associated proteins, including relatively stringent washes in 2 M NaCl buffer. Bound proteins were released from beads by heating samples in SDS-sample buffer and were analyzed on 10-20% SDS-PAGE gels. Aliquots of initial ³⁵S-labeled translation reactions were analyzed as well.

B1: wild-type huBUB1 (full-length, plasmid p385-1) (enzyme)
chain: MDTPENVLQMLEAHMQSYKGNDPLGEWERYIQWVEENFPENKEYLITLLEHLMKEFLDKKKYHNDPRFISYCLKFAEYNSDLHQFFEFLYNHGIGTLSSPLYIAWAGHLEAQGELQHASAVLQRGIQNQAEPREFLQQQYRLFQTRLTETHLPAQARTSEPLHNVQVLNQMITSKSNPGNNMACISKNQGSELSGVISSACDKESNMERRVITISKSEYSVHSSLASKVDVEQVVMYCKEKLIRGESEFSFEELRAQKYNQRRKHEQWVNEDRHYMKRKEANAFEEQLLKQKMDELHKKLHQVVETSHEDLPASQERSEVNPARMGPSVGSQQELRAPCLPVTYQQTPVNMEKNPREAPPVVPPLANAISAALVSPATSQSIAPPVPLKAQTVTDSMFAVASKDAGCVNKSTHEFKPQSGAEIKEGCETHKVANTSSFHTTPNTSLGMVQATPSKVQPSPTVHTKEALGFIMNMFQAPTLPDISDDKDEWQSLDQNEDAFEAQFQKNVRSSGAWGVNKIISSLSSAFHVFEDGNKENYGLPQPKNKPTGARTFGERSVSRLPSKPKEEVPHAEEFLDDSTVWGIRCNKTLAPSPKSPGDFTSAAQLASTPFHKLPVESVHILEDKENVVAKQCTQATLDSCEENMVVPSRDGKFSPIQEKSPKQALSSHMYSASLLRLSQPAAGGVLTCEAELGVEACRLTDTDAAIAEDPPDAIAGLQAEWMQMSSLGTVDAPNFIVGNPWDDKLIFKLLSGLSKPVSSYPNTFEWQCKLPAIKPKTEFQLGSKLVYVHHLLGEGAFAQVYEATQGDLNDAKNKQKFVLKVQKPANPWEFYIGTQLMERLKPSMQHMFMKFYSAHLFQNGSVLVGELYSYGTLLNAINLYKNTPEKVMPQGLVISFAMRMLYMIEQVHDCEIIHGDIKPDNFILGNGFLEQDDEDDLSAGLALIDLGQSIDMKLFPKGTIFTAKCETSGFQCVEMLSNKPWNYQIDYFGVAATVYCMLFGTYMKVKNEGGECKPEGLFRRLPHLDMWNEFFHVMLNIPDCHHLPSLDLLRQKLKKVFQQHYTNKIRALRNRLIVLLLECKRSRK
notes: Full-length, untagged protein made in vitro (T7 TnT kit), 35S-methionine-labeled or unlabeled; also called full-length huBUB1; untagged huBUB1
Question: Does B1 bind?
Answer: Result: no binding
